These results are taken from publication PMC6532589.

In this series the target is human alpha-thrombin (human, UniProt P00734;P00734 328-363;364-622). Nature of the series: centrifugation separation, free thrombin by fibrinogen-Au NP assay, Scatchard; graphene oxide carrier; 100 uM BSA; PBS (1X: 137 mM NaCl, 2.7 mM KCl, 10 mM Na2HPO4, 1.8 mM KH2PO4, pH 7.4) with 100 uM BSA, 30 min; 100 pM Supra-TBA15/29, thrombin 0-1 nM; temperature not stated.

B1: Supra-TBA15/29-GO (sTBA15 + sTBA29 network on graphene oxide) (mixed)
DNA 1: AAAAAAAAAAAAAAAAAAAACGACCTGTACGACTCTTTTTTCAGGGTTGGTGTGGTTGGCTGATTTTTATCTTCACGAGCACT
DNA 2: GAGTCGTACAGGTCGTTTTTAGTCCGTGGTAGGGCAGGTTGGGGTGACTTTTTTAGTGCTCGTGAAGATAAAAAAAAAAAAAAAAAAAA
modifications: adsorbed on graphene oxide through A20 tails (40 ug/mL GO, 60 C)
For the molecule B1, the affinity, expressed as Kd, was 0.019 nM. This counts as picomolar.
